How the values were obtained:
Experiment in all cases: purified protein
Format in all cases: biochemical, Leishmania donovani
purified protein [1] = substrate: N[C@@H](Cc1ccccc1)C(=O)O; settings: co-substrate sodium pyruvate 100 mM; Phe 0-7 mM; PLP 30 μM, 37 °C
purified protein [2] = substrate: N[C@@H](Cc1c[nH]c2ccccc12)C(=O)O; settings: co-substrate sodium pyruvate 100 mM; Trp 0-7 mM; PLP 30 μM, 37 °C
purified protein [3] = substrate: Cc1ncc(COP(=O)(O)O)c(C=O)c1O; settings: tyrosine-sodium pyruvate as substrates; covalent internal aldimine with K286; varied: cofactor
purified protein [4] = substrate: N[C@@H](Cc1ccc(O)cc1)C(=O)O; settings: co-substrate sodium pyruvate 100 mM; Tyr 0-7 mM; PLP 30 μM, 37 °C
purified protein [5] = substrate: CSCCC(=O)C(=O)O; settings: co-substrate Tyr 4 mM; KMB 0-4.5 μM; PLP 30 μM, 37 °C
purified protein [6] = substrate: CC(=O)C(=O)O; settings: co-substrate Tyr 4 mM; sodium pyruvate 0-200 mM; PLP 30 μM, 37 °C

B1: LdTAT (Leishmania donovani) (protein)
chain: MTIDTQAAPAAQTLKAGNATGSLTEERREVEQQRAAENTSFRRIASSKHAQRTLQPLNNLTDNMKPSRSTKSNLRLSIGDPTVDGNLKTPDIVTEAMVDIVRSGKFNGYPPTVGADNLRQVVSTYWRRFCQTKSRQEALKWENVIITSGVSQAIVLALTALCNEGDNILVCAPSFPHYKSVCDSYGIECRYYYLDPSKSWECDLRAAAGMVDSHTKAFVIINPSNPCGSNFSRAHVSDIIDFCQQHQIPLISDEIYAEMVLNNGIFTSVADFDTNVPRLILGGTAKYQVCPGWRVGWSILIDPMNVAGDWAVGMERLTQLIAGVNSICQEAIARTLLKCPAECTEHIVTQLEAGAKVYARLLEHDIGISMEAPQASMFVMLKLNLSYFQDLKSDMEFYEKLLDEENVQVLPGEIFGMSGFLRATVSRPSAVLNEAVDRIIEFCERHKK
notes: full-length ORF 1347 bp (448 residues from ORF length) amplified from L. donovani genomic DNA; pET28a(+) BamHI/HindIII, His-tagged, E. coli BL21, Ni-NTA
Km (purified protein [1]): 3.752 ± 0.96 mM
Vmax (purified protein [1]): 19800 µM/min/mg
Km (purified protein [2]): 5.055 ± 0.42 mM
Vmax (purified protein [2]): 19900 µM/min/mg
Km (purified protein [3]): 0.02359 ± 0.00399 mM
Km (purified protein [4]): 3.5 ± 0.90 mM
Vmax (purified protein [4]): 11700 µM/min/mg
Km (purified protein [5]): 0.0008103 ± 0.00011 mM
Vmax (purified protein [5]): 1850 µM/min/mg
Km (purified protein [6]): 42.67 ± 0.38 mM
Vmax (purified protein [6]): 8600 µM/min/mg

From article PMC6768288, “Biochemical and structural characterization of tyrosine aminotransferase suggests broad substrate specificity and a two‐state folding mechanism in Leishmania donovani” (FEBS Open Bio, 2019)
